Experimental data as given in patent US20250034267A1 (published 2025).

T1: CD25 endogenously expressed on SUDHL-1 human lymphoma cell line and induced human Treg (iTreg) (human, UniProt P01589 22-272)
T1 sequence (looked up): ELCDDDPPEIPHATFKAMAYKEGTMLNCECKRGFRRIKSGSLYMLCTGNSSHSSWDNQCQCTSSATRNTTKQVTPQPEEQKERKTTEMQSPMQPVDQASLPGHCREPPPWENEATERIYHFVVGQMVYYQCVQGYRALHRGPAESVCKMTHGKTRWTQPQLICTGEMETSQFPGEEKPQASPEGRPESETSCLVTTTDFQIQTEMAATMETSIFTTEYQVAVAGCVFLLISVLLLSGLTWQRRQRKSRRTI

T2: cynomolgus CD25 (Sino Biologicals, 90265-C08H) (cynomolgus, UniProt H6WS54 22-240)
T2 construct: Bought recombinant protein coated on ELISA plates; also called cynos monkey CD25; immobilized cynomolgus CD25
T2 sequence: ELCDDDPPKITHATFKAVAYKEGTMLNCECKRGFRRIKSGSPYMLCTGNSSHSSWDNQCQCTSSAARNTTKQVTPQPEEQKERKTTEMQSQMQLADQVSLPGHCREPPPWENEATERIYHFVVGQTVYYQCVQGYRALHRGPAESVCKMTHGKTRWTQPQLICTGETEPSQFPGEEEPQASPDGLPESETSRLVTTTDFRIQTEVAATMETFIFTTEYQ

T3: CD25 (as used on the Carterra LSA) (Homo sapiens (Human), UniProt P01589 22-240)
T3 sequence: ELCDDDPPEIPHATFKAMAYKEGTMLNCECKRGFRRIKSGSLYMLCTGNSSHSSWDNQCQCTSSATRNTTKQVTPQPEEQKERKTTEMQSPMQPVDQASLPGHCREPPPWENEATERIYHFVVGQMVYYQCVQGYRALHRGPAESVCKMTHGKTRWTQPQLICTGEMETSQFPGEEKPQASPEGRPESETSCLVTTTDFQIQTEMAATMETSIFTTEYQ

T4: human IL2R on HEK blue human IL2R overexpressing cell line (human, UniProt P01589 22-272; P14784 27-551; P31785 23-369)
T4 sequence (looked up) 1: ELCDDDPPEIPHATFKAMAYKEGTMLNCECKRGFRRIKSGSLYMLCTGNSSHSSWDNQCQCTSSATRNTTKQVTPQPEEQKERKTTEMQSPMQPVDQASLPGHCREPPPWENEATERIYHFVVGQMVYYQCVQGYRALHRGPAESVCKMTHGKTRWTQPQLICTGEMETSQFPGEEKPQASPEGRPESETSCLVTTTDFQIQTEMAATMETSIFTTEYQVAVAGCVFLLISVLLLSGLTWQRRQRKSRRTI
T4 sequence (looked up) 2: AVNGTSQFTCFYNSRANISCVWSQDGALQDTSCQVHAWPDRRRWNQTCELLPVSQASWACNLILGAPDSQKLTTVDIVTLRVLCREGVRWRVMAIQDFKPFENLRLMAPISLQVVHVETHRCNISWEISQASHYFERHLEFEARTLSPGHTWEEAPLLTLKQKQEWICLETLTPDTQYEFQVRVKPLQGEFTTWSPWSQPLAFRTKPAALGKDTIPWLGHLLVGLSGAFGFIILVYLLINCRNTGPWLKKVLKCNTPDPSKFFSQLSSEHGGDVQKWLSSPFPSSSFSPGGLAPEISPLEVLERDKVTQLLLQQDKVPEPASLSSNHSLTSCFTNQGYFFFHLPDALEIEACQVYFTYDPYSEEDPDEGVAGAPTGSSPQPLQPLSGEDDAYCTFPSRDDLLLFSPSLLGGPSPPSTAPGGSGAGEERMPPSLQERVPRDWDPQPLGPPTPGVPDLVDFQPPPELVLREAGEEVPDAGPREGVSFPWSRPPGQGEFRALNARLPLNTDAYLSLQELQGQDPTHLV
T4 sequence (looked up) 3: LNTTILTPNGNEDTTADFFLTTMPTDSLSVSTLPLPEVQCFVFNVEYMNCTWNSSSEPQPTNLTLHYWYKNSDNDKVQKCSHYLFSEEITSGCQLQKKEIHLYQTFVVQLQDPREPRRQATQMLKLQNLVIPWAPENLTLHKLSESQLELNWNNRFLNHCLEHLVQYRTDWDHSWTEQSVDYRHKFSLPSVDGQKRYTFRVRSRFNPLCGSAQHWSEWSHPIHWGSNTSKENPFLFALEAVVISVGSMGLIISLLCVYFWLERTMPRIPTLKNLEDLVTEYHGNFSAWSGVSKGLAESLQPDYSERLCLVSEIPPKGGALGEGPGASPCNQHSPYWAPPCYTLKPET

T5: human CD25 (Sino Biologicals, 10165-H08H) (human, UniProt P01589 22-213)
T5 construct: Bought recombinant protein coated on ELISA plates; also called immobilized human CD25; IL2RA
T5 sequence (looked up): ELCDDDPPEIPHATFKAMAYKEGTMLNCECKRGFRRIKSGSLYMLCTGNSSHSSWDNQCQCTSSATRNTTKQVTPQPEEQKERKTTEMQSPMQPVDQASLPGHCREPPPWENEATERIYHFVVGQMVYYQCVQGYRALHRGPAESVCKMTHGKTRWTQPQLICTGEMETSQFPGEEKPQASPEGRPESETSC


Key:
[1] = molecular target: T1, CD25 endogenously expressed on SUDHL-1 …; experiment: cell-based or functional assay
[2] = molecular target: T1, CD25 endogenously expressed on SUDHL-1 …; experiment: cell-based or functional assay; remark: listed apart in the source
[3] = molecular target: T1, CD25 endogenously expressed on SUDHL-1 …; experiment: flow cytometry on SUDHL-1 cells; average of n>=6; SD 38.12
Experimental: SUDHL-1 and iTreg Cell Binding Assay.
(§1) The plates were centrifuged and then kept on ice for the remaining essay steps after aspiration of the supernatant. Following supernatant aspiration, the anti-CD25 or control antibodies in the assay buffer were added to the cells at increasing concentrations (0.64-10,000 ng/ml) for 20 minutes on ice. After incubation, the plates were centrifuged and the supernatant was aspirated, then the cells were washed once with the assay buffer followed by centrifugation and supernatant aspiration. […] After incubation, the plates were centrifuged and the supernatant was aspirated, then the cells were washed once with the assay buffer followed by centrifugation and supernatant aspiration. […] Cell binding was analyzed on a Miltenyi MACSQuant 16 flow cytometer. Flow cytometry data were analyzed with the FlowJo flow cytometry analysis software. For making graphs and calculation of the EC₅₀ values GraphPad Prism 9.3.0 was used.

[4] = molecular target: T2, cynomolgus CD25 (Sino Biologicals, …); experiment: ELISA, plate coated with cynomolgus CD25; average of n>=3; SD 9.8
Experimental: (§2) Values plotted are measured absorbance at 450 nm wavelength.
(§3) CD25 Binding ELISA. […] The next day, plates were washed three times with wash buffer [1X PBS with 0.1% Tween-20 (Teknova, P0207)] followed by the addition of blocking buffer [1X PBS, 1% BSA (Teknova, B0101)] for 1 hour at room temperature. After blocking, plates were washed three times with wash buffer followed by the addition of the anti-CD25 or control antibodies in wash buffer at increasing concentrations (0.0006-10 μg/mL) for 1 hour at room temperature. After incubation, plates were washed three times with wash buffer followed by the addition of goat anti-human IgG-HRP secondary antibody (Biorad, STAR126P) at 1:2500 dilution in wash buffer for 1 hour at room temperature. […] After TMB substrate incubation, ELISA stop solution (Thermo Fisher, SS04) was added to the plate at equal volume to the TMB substrate and the absorbance was read at 450 nm. The data was plotted using GraphPad Prism 9.3.0 software and the EC₅₀ values were calculated by the software.

[5] = molecular target: T3, CD25 (as used on the Carterra LSA); experiment: Carterra LSA binding kinetics
[6] = molecular target: T1, CD25 endogenously expressed on SUDHL-1 …; experiment: flow cytometry on iTreg cells; average of n=3; SD 83.94
Experimental: as §1

[7] = molecular target: T3, CD25 (as used on the Carterra LSA); experiment: Carterra LSA binding kinetics; KD SD 1.27 nM
[8] = molecular target: T4, human IL2R on HEK blue human IL2R …; experiment: cell-based or functional assay
[9] = molecular target: T5, human CD25 (Sino Biologicals, …); experiment: ELISA, plate coated with human CD25; average of n>=3; SD 3.2
Experimental: as §2, §3

[10] = molecular target: T1, CD25 endogenously expressed on SUDHL-1 …; experiment: flow cytometry on SUDHL-1 cells; average of n>=6; SD 39.9
Experimental: SUDHL-1 and iTreg Cell Binding Assay.
as §1

[11] = molecular target: T1, CD25 endogenously expressed on SUDHL-1 …; experiment: flow cytometry on iTreg cells; average of n=3; SD 40.50
Experimental: as §1

[12] = molecular target: T2, cynomolgus CD25 (Sino Biologicals, …); experiment: ELISA, plate coated with cynomolgus CD25; average of n>=3; SD 12.3
Experimental: as §2, §3

[13] = molecular target: T3, CD25 (as used on the Carterra LSA); experiment: Carterra LSA binding kinetics; KD SD 1.03 nM
[14] = molecular target: T5, human CD25 (Sino Biologicals, …); experiment: ELISA, plate coated with human CD25; average of n>=3; SD 2.5
Experimental: as §2, §3

[15] = molecular target: T1, CD25 endogenously expressed on SUDHL-1 …; experiment: flow cytometry on SUDHL-1 cells; average of n>=6; SD 26.2
Experimental: SUDHL-1 and iTreg Cell Binding Assay.
as §1

[16] = molecular target: T3, CD25 (as used on the Carterra LSA); experiment: Carterra LSA binding kinetics; KD SD 0.37 nM
[17] = molecular target: T1, CD25 endogenously expressed on SUDHL-1 …; experiment: flow cytometry on iTreg cells; average of n=3; SD 44.59
Experimental: as §1

[18] = molecular target: T2, cynomolgus CD25 (Sino Biologicals, …); experiment: ELISA, plate coated with cynomolgus CD25; average of n>=3; SD 19.5
Experimental: as §2, §3

[19] = molecular target: T5, human CD25 (Sino Biologicals, …); experiment: ELISA, plate coated with human CD25; average of n>=3; SD 4.9
Experimental: as §2, §3

[20] = molecular target: T1, CD25 endogenously expressed on SUDHL-1 …; experiment: flow cytometry on iTreg cells; average of n=3; SD 63.88
Experimental: as §1

[21] = molecular target: T5, human CD25 (Sino Biologicals, …); experiment: ELISA, plate coated with human CD25; average of n>=3; SD 3.3
Experimental: as §2, §3

[22] = molecular target: T2, cynomolgus CD25 (Sino Biologicals, …); experiment: ELISA, plate coated with cynomolgus CD25; average of n>=3; SD 8.8
Experimental: as §2, §3

[23] = molecular target: T1, CD25 endogenously expressed on SUDHL-1 …; experiment: flow cytometry on SUDHL-1 cells; average of n>=6; SD 39.71
Experimental: SUDHL-1 and iTreg Cell Binding Assay.
as §1

[24] = molecular target: T3, CD25 (as used on the Carterra LSA); experiment: Carterra LSA binding kinetics; KD SD 0.69 nM

Binder | EC50, iTreg/NFAT CD16 ADCC reporter assay [1] [ng/mL] | EC50, SUDHL-1/NFAT CD16 ADCC reporter assay [2] [ng/mL] | koff [5] [s⁻¹] | kon [5] [M⁻¹ s⁻¹] | EC50, IL-2 reporter HEK293 pSTAT5 assay (activation of STAT5 by IL2 in presence of the antibody) [8] [ng/ml] | other results
IBIO-101-plant-afuc (SD-889825-PC-A; IBIO-101, c-105 plant Afucosylated) (antibody, human IgG1, kappa, V domains shown, Same antibody made in C105 deltaXT/FT N. benthamiana plants, glycans without fucose and xylose; also called RTX-003; hD11) VH: QVQLVQSGAEVKKPGASLKISCKGSGYTFTDYAMHWVRQAPGQGLEWIGVISTYSGDAIYAQKFQGRATMTVDTSTSTAYLELSSLRSEDTAVYYCARGVTFDYWGQGTTVTVSS VL: DIQMTQSPSSLSASVGDRVTITCRASQDISNYLEWYQQKPGKAPKLLVYNAKTLAEGVPSRFSGSGSGTDFTLTISSLQPEDFGTYYCQHHYDTPYTFGQGTKLEIKR | 7.14 | 8.9 | 0.00207 | 492000 | 0.17 | EC50 [3]: 0.123 µg/mL; EC50 [4]: 0.0424 µg/mL; EC50 [6]: 0.218 µg/mL; Kd [7]: 4.27 nM; EC50 [9]: 0.0174 µg/mL
IBIO-101-CHO-afuc (SD-889825-CG-A; IBIO-101, CHO cells Afucosylated) (antibody, human IgG1, kappa, V domains shown, Same antibody made in CHO cells, afucosylated glycans; also called RTX-003; hD11) VH: QVQLVQSGAEVKKPGASLKISCKGSGYTFTDYAMHWVRQAPGQGLEWIGVISTYSGDAIYAQKFQGRATMTVDTSTSTAYLELSSLRSEDTAVYYCARGVTFDYWGQGTTVTVSS VL: DIQMTQSPSSLSASVGDRVTITCRASQDISNYLEWYQQKPGKAPKLLVYNAKTLAEGVPSRFSGSGSGTDFTLTISSLQPEDFGTYYCQHHYDTPYTFGQGTKLEIKR | 4.71 | 7.2 | 0.00119 | 499000 | 0.17 | EC50 [10]: 0.126 µg/mL; EC50 [11]: 0.219 µg/mL; EC50 [12]: 0.0431 µg/mL; Kd [13]: 3.9 nM; EC50 [14]: 0.0156 µg/mL
IBIO-101-CHO-WT (SD-889825-CW-A; IBIO-101, wild-type CHO cells) (antibody, human IgG1, kappa, V domains shown, The signal peptide is marked only by bold print (lost here); also called RTX-003; hD11) VH: QVQLVQSGAEVKKPGASLKISCKGSGYTFTDYAMHWVRQAPGQGLEWIGVISTYSGDAIYAQKFQGRATMTVDTSTSTAYLELSSLRSEDTAVYYCARGVTFDYWGQGTTVTVSS VL: DIQMTQSPSSLSASVGDRVTITCRASQDISNYLEWYQQKPGKAPKLLVYNAKTLAEGVPSRFSGSGSGTDFTLTISSLQPEDFGTYYCQHHYDTPYTFGQGTKLEIKR | 53.8 | 84.5 | 0.00192 | 471000 | 0.17 | EC50 [15]: 0.123 µg/mL; Kd [16]: 4.1 nM; EC50 [17]: 0.223 µg/mL; EC50 [18]: 0.0544 µg/mL; EC50 [19]: 0.0199 µg/mL
IBIO-101-plant-WT (SD-889825-PW-A; IBIO-101, wild-type plant) (antibody, human IgG1, kappa, V domains shown, Same antibody made in wild-type Nicotiana benthamiana plants; also called RTX-003; hD11) VH: QVQLVQSGAEVKKPGASLKISCKGSGYTFTDYAMHWVRQAPGQGLEWIGVISTYSGDAIYAQKFQGRATMTVDTSTSTAYLELSSLRSEDTAVYYCARGVTFDYWGQGTTVTVSS VL: DIQMTQSPSSLSASVGDRVTITCRASQDISNYLEWYQQKPGKAPKLLVYNAKTLAEGVPSRFSGSGSGTDFTLTISSLQPEDFGTYYCQHHYDTPYTFGQGTKLEIKR | 30.3 | 32.5 | 0.0012 | 485000 | 0.21 | EC50 [20]: 0.235 µg/mL; EC50 [21]: 0.016 µg/mL; EC50 [22]: 0.0439 µg/mL; EC50 [23]: 0.126 µg/mL; Kd [24]: 4.2 nM
